Measurements taken from paper PMC5670330.

Target: GFP-SR-BI (scavenger receptor BI) on CHO cells (UniProt Q8WTV0)
Chain of UniProt Q8WTV0 (Q8WTV0 whole entry): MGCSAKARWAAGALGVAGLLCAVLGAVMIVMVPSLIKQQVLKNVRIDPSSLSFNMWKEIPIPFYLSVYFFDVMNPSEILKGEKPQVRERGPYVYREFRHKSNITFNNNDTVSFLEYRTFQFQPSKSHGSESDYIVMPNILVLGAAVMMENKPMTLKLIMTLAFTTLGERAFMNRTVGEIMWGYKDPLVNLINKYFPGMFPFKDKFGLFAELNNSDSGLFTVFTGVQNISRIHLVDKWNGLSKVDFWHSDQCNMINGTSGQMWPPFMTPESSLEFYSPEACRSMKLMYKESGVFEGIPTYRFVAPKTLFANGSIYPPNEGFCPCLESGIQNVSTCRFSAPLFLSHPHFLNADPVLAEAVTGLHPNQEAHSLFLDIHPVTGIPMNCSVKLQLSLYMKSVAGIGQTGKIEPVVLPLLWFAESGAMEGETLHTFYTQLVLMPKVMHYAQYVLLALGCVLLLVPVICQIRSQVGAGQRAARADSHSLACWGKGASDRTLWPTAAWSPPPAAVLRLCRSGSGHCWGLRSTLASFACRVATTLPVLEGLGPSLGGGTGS

Alexa Fluor 568 labeled human high-density lipoprotein (from UniProt P02647 19-267) (complex)
AF568-HDL internalization by HCCMECs after pre-treatment with 10 ug/mL blocking anti-SR-BI scFv (percent decrease): 57%
